This is an account of results in paper PMC4358367, “Structural basis of diverse membrane target recognitions by ankyrins” (eLife, 2014).

What all share (test): FP
Assay [1] deals with T1, AnkB_repeats (24 ANK repeats of human 220 kDa ankyrin-B, residues 28–873) (human, UniProt Q01484 28-873).
T1 chain: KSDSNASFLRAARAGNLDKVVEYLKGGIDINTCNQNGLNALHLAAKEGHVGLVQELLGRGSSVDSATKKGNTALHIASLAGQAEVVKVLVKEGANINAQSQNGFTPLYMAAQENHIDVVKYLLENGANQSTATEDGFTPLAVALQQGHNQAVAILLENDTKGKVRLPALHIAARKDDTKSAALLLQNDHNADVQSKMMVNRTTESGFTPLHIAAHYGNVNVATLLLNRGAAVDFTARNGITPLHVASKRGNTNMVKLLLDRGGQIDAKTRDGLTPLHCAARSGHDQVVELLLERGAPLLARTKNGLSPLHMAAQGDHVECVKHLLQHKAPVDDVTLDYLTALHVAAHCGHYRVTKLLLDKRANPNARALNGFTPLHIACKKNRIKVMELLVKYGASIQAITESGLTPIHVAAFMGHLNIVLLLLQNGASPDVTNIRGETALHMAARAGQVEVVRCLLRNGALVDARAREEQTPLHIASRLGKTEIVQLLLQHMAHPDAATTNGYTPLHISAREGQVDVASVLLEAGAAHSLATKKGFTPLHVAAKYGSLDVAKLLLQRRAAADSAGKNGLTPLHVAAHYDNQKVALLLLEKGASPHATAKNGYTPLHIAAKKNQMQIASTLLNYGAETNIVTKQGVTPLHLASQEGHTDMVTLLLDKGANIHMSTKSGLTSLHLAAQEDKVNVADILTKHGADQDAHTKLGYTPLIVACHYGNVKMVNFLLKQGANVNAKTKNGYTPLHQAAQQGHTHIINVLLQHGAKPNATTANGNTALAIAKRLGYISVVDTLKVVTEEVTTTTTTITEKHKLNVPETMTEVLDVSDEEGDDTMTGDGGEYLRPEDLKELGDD

Assay [2] concerns the target T2, AnkB_repeats site 1 mutant 'FF' (Phe131 and Phe164 to Gln) (human, UniProt Q01484 28-873, Phe131 substituted with Gln | Phe164 substituted with Gln).
T2 sequence: T1 chain with F104Q, F137Q

For assay [3], the target named is T3, AnkB_repeats site 2 mutant 'IL' (Ile267 and Leu300 to Gln) (human, UniProt Q01484 28-873, Ile267 substituted with Gln | Leu300 substituted with Gln).
T3 sequence: T1 chain with I240Q, L273Q

Positions count from the first letter of the chain named. Where no end group is shown, it is not given here.

B1: Cav1.3 peptide (mouse Cav1.3 residues 2134–2166), FITC-labeled (peptide, UniProt Q99246-4 2134-2166, looked up)
peptide: ELQDFGPGYSDEEPDPGREEEDLADEMICITTL
modifications: also: FITC label (position not given here)
notes: voltage-gated calcium channel Cav1.3, mouse, residues 2134-2166; also called voltage-gated calcium channel Cav1.3 peptide; source: synthetic peptide (commercially synthesized)
Turning to B1, the values for the Kd in assay [1], in assay [2] and in assay [3] were 3.3 µM, 3.3 µM and 8.2 µM, respectively.
